# ± gives the standard deviation.
# Assay: protein stability index of a GFP-peptide fusion (GPS, HEK-293T) (PSI 1-6); higher = more stable
# [1] = treatment: DMSO, c terminus: a fixed tail appended
# [2] = treatment: MLN4924 1 uM, 8 h, c terminus: a fixed tail appended
# 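Also: 24-mer peptide tiles fused after GFP, lentivirally expressed, FACS-sorted into six equal bins by GFP/DsRed ratio, decoded by Illumina sequencing, PSI is the read-weighted mean bin number.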
Sequence,protein stability index [1],protein stability index [2],"protein stability index (treatment: DMSO, c terminus: native)","protein stability index (treatment: MLN4924 1 uM, 8 h, c terminus: native)"
VSGSHFVGVDGVRAFLQTYSHEVS [PCDHGA10],2.49 ± 0.27,2.24 ± 0.24,–,–
NIKIWLSLRSYLKRRGPQRSVDVV [PHTF1],2.43 ± 0.35,2.54 ± 0.36,–,–
RGGMGSGGLATGIAGGLAGMGGIQ [KRT18],3.61 ± 0.18,3.38 ± 0.23,–,–
YESSADIAGDEGTQIPADEDTQTD [TAF7L],5.61 ± 0.24,5.53 ± 0.24,–,–
RKSLALDIVDEDVKLMMSTLPKSL [MYBL2],2.98 ± 0.27,2.76 ± 0.29,–,–
KEQHLWDVDLLDSKVIEILDSQTE [DLC1],4.79 ± 0.26,4.5 ± 0.18,–,–
RKISSLSFTLEEEEEGGEEEEEAA [FAM50A],5.53 ± 0.26,5.33 ± 0.26,–,–
LVLAAVVAWCYYSVSLRKAERLRA [MYORG],3.27 ± 0.64,3.31 ± 0.33,–,–
RGTQYSSLDSLDGLSLTDESDSCV [PSD2],5.26 ± 0.22,5.3 ± 0.14,–,–
KQLEFCFSRENLSKDLYLISQMDS [LARP4],2.4 ± 0.2,2.33 ± 0.28,–,–
LGWAQPCDVWSIGCILFEYYRGFT [CLK3],3.31 ± 0.71,2.93 ± 1.5,–,–
CDECGKIFSQSSALILHQRIHSGK [ZNF396],5.51 ± 0.39,5.51 ± 0.11,–,–
SLELPKAIQDQLPRLQQLLKTLEE [FANCE],2.66 ± 0.32,2.85 ± 0.24,–,–
HQDLKYISPETMVALLTGKFSNIV [CDC25B],2.23 ± 0.41,2.55 ± 0.54,–,–
AQIDQYVGLVTNQLSHIKAKIRAK [RTN2],2.7 ± 0.3,2.75 ± 0.28,–,–
RLIRELAEFEKLSDQVKISEEALR [SAT2],3.16 ± 0.35,3.43 ± 0.3,–,–
THSSLSQELQARLQTVTREKEELL [CCDC89],4.89 ± 0.35,4.68 ± 0.22,–,–
IYKLEEHEEFFPAFQAFTNDLLEI [CEP70],2.43 ± 0.24,2.39 ± 0.072,–,–
KEDALLYQSKGYNDDYYEESYFTT [EMD],4.2 ± 0.2,4.21 ± 0.18,–,–
SRVTDPVGDIVSFMHSFEEKYGRA [FAF2],3.34 ± 0.25,3.59 ± 0.36,–,–
SNAMLVGDKLKFLSMLLTLKCEMN [ACSBG2],2.66 ± 0.62,2.52 ± 0.052,–,–
HRFVEKPQVFVSNKINAGMYILSP [GMPPB],2.25 ± 0.21,2.29 ± 0.13,–,–
PPSNFLEIDIFNPQTVGVGRARFT [SNX12],3.27 ± 0.34,3.27 ± 0.21,–,–

Sequence,protein stability index [1],protein stability index [2],"protein stability index (treatment: DMSO, c terminus: native)","protein stability index (treatment: MLN4924 1 uM, 8 h, c terminus: native)"
RGAPAVQQNIPSTLLQDHENQRLF [WAS],4.25 ± 0.2,4.29 ± 0.15,–,–
DAVTAALLIPKEDGVITASEDRTI [WDFY1],4.7 ± 0.13,4.86 ± 0.27,–,–
DEGRLLLEFDLLIFSFGQLPLALV [SOAT2],3.16 ± 0.11,2.81 ± 0.46,–,–
RILLRMTLGREVMSPLQAMSSYTV [NLN],2.67 ± 1.1,2.45 ± 0.32,–,–
KSGAIMSALSDTEIQREIGISNAL [PPFIA4],4.02 ± 0.36,4.13 ± 0.18,–,–
IVYHPYRPLLQYVQDMGQEDMLLP [CCNC],2.25 ± 0.57,1.93 ± 0.34,–,–
DAQLLPHHSLQAHFRPRFHPLPTV [TMEM192],3.22 ± 0.18,3.22 ± 0.16,–,–
EQDMERRKADFKAGKALVISGREV [ZC3H15],4.8 ± 0.3,4.89 ± 0.18,–,–
GLSLCQFQNFSLHDPLYGKLFSTY [LPCAT4],1.81 ± 0.56,2.06 ± 0.21,–,–
IYLLRRQIRTVIQYQTVRYDILPL [CTDNEP1],2.94 ± 0.34,2.56 ± 0.51,–,–
NFCKHNGSKNVFSTFRTPAVLFTG [ATL3],2.21 ± 0.32,2.33 ± 0.13,–,–
RGTYEQDGRFEKRQGNPSWKKQQK [ZNF396],4.63 ± 0.34,4.72 ± 0.41,–,–
RHQSIFKSNGFFHGISIPEPEDME [CDKL4],3.58 ± 0.27,3.87 ± 0.15,–,–
CAVLDDSIYLVGGYSWSMGAYKSS [KLHL14],2.52 ± 0.64,2.17 ± 0.64,–,–
NQLLVADVKRLGKQNARFLTSMRR [STX11],2.97 ± 0.079,3.08 ± 0.41,–,–
AQRHRGSAKDGGPQPPDAPQLVSS [PLEKHN1],5.04 ± 0.51,5.22 ± 0.28,–,–
YTGRAPNLDKMADNLLAAADKYAL [SPOPL],2.78 ± 0.42,3.06 ± 0.5,–,–
VRHLEEENRGIVVLGINRAYGKNS [AUH],3.15 ± 0.36,3.31 ± 0.22,–,–
TMELRNYFSLYCLHQETQLIHVYL [SNX8],3.41 ± 0.67,2.94 ± 0.72,–,–
LTADTKEVTASQEARGLRLSDLED [IRX6],5.37 ± 0.32,5.35 ± 0.12,–,–
VPSLNAALMHTLQRHRDILQVIYW [GOSR1],2.23 ± 0.55,2.4 ± 0.41,–,–
ASSPGNPTALANGTVQAPKQKGD [LPCAT4],–,–,5.31 ± 0.21,5.22 ± 0.35
LKPESSQQPGQDALAVKAGHGYDS [ZBED1],5.12 ± 0.33,5.22 ± 0.32,–,–

Sequence,protein stability index [1],protein stability index [2],"protein stability index (treatment: DMSO, c terminus: native)","protein stability index (treatment: MLN4924 1 uM, 8 h, c terminus: native)"
VSDITDLELLDKIERSKIVSTMRC [PPEF2],3.69 ± 0.27,3.52 ± 0.23,–,–
DQDLRTYLDKAPPPGLPAETIKDL [CDK4],5.07 ± 0.28,4.94 ± 0.2,–,–
QKEQGLSDNILSPVMNGGVQTWTQ [PDZK1],2.84 ± 0.5,3.32 ± 0.71,–,–
LLSFLLLMDYIGINLATMNSCINP [EDNRA],2.58 ± 0.73,4.18 ± 0.46,–,–
SSEVDELIHKADEVTLSEAGSTAG [PALM],5.65 ± 0.15,5.58 ± 0.16,–,–
ISEHEHFTDFNATSALFWEQHDLV [CLPTM1],3.33 ± 0.27,3.38 ± 0.35,–,–
EAAQVVPDGLGLDEAREEEGDREV [TRIB3],5.63 ± 0.15,5.43 ± 0.45,–,–
INYCALNKPGCEHECVNMEESYYC [MATN2],3.26 ± 0.7,3.28 ± 0.64,–,–
CRFNQDPEAVDEDRSTEPDRLQVF [ATE1],4.54 ± 0.18,4.55 ± 0.2,–,–
VGLNTIADLWYLFGDLSLSLVTVG [POMT2],3.71 ± 0.08,3.16 ± 0.79,–,–
SNCCFTFSGHFLCTSSWDKNLKIW [WDR88],2.22 ± 0.97,2.3 ± 0.4,–,–
GMSYLYASWMYQLQHGDQLSICFT [TEX19],3 ± 0.39,2.92 ± 0.42,–,–
GSARSHASSRASENQSPSSSNYFS [ZBTB22],4.28 ± 0.22,4.74 ± 0.2,–,–
AHHRSGAQVFPESPESESDHEHEE [GNAS],5.63 ± 0.24,5.54 ± 0.26,–,–
RPGVQDAALIEAIQDRLSNTLQTY [VDR],2.78 ± 0.3,3.09 ± 0.28,–,–
KSFSMANGLNARMMHGGSYSLTTS [RAB40B],3.1 ± 0.2,3.18 ± 0.2,–,–
TSYKPYLNRDEEIIKQLQKGVQQK [DENND6A],3.34 ± 0.25,3.27 ± 0.34,–,–
QMTNIGVYVSNMTDKLVTPGKYFS [IQUB],2.31 ± 0.5,2.49 ± 0.28,–,–
SSSSLGNKLQTLSPSHKGIAAPHA [ZC2HC1A],3.81 ± 0.22,3.97 ± 0.26,–,–
IWSEVFTVEKPGGKKVAVVLMDTQ [ATL3],2.2 ± 0.34,2.37 ± 0.39,–,–
VLELHHSKLDTTKALNLLPANTQI [VPS39],3.03 ± 0.14,3.12 ± 0.15,–,–
CREQLDIMNDLSNRVWSISQEPDP [TRIM14],3.43 ± 0.28,3.43 ± 0.21,–,–
RAVVEAVHRLDLILCNKTAYQEVF [SMG5],2.92 ± 0.43,2.92 ± 0.85,–,–

Sequence,protein stability index [1],protein stability index [2],"protein stability index (treatment: DMSO, c terminus: native)","protein stability index (treatment: MLN4924 1 uM, 8 h, c terminus: native)"
EKEKAEIEAKEACDWLRATGFPQY [DLC1],4.02 ± 0.24,4.09 ± 0.24,–,–
PKLFCPKNRSFDIDAIYSVIDDAK [PLD5],3 ± 0.62,2.89 ± 0.27,–,–
CAIASGSELSESAFGYFITACAVI [SLC29A1],3.37 ± 0.67,3.12 ± 0.34,–,–
NKCSVYPLTFDKNENMAAKKKSVA [GNB5],4.09 ± 0.16,4.39 ± 0.48,–,–
EEEEEEEEEEDDLSELPPLEDMGQ [FKBP8],5.37 ± 0.3,5.63 ± 0.12,–,–
YPVTIGGKIVGSLCAIAGVLTIAL [KCNA1],2.35 ± 0.21,2.23 ± 0.16,–,–
TRTTSFKGTSPSSKYVKLNVGGAL [KCTD10],3.01 ± 0.41,2.87 ± 0.28,–,–
RNQYEALVETNRREVEQWFATQTE [KRT33B],4.37 ± 0.28,4.27 ± 0.48,–,–
DKNISPRENILVSLGAVGEGFHNY [SCD],3.23 ± 0.49,3.18 ± 0.24,–,–
VKGLFKSENCPKVISCEFAHNSNW [LARP4],2.17 ± 0.24,2.4 ± 0.24,–,–
MAEHRSMDGRMEAATRGGSHLQAA [SCNN1D],4.56 ± 0.27,4.648 ± 0.04,–,–
VFDAEGYVKPQSCIDIVIRHVAPI [MOSPD3],2.19 ± 0.16,2.19 ± 0.51,–,–
IQQALTMFPGVLLPLLESCSVRPD [TCF25],2.4 ± 0.5,3.18 ± 0.58,–,–
VCQKLLLDAMNYHLMPFRQHCRQS [KLHL14],3 ± 0.47,2.99 ± 0.62,–,–
SLRDKVLQLQKGSDTEAQCEVMQE [INTS3],5.11 ± 0.23,5.08 ± 0.2,–,–
HVAVEHQLPPASRCVLVFEQVRFL [SOAT2],2.66 ± 0.86,2.36 ± 0.61,–,–
KRAESDSRKSSIPNNKEIPSHHPT [PTPRD],5.151 ± 0.046,5.08 ± 0.078,–,–
PYVCHAELNAIMNKNSTDVKGCSM [DCTD],3.41 ± 0.22,3.43 ± 0.33,–,–
CRLINEDVNEQVMQVLGPEDLQSI [CEP70],3.65 ± 0.32,3.54 ± 0.28,–,–
LYPEGIGARQQQVTTYLHKDYNNL [POMT2],3.25 ± 0.15,3.35 ± 0.26,–,–
